Experimental data from patent publication US20090181003.

B1: GST-P/CAF (protein)
chain: MSEAGGAGPGGCGAGAGAGAGPGALPPQPAALPPAPPQGSPCAAAAGGSGACGPATAVAAAGTAEGPGGGGSARIAVKKAQLRSAPRAKKLEKLGVYSACKAEESCKCNGWKNPNPSPTPPRADLQQIIVSLTESCRSCSHALAAHVSHLENVSEEEMNRLLGIVLDVEYLFTCVHKEEDADTKQVYFYLFKLLRKSILQRGKPVVEGSLEKKPPFEKPSIEQGVNNFVQYKFSHLPAKERQTIVELAKMFLNRINYWHLEAPSQRRLRSPNDDISGYKENYTRWLCYCNVPQFCDSLPRYETTQVFGRTLLRSVFTVMRRQLLEQARQEKDKLPLEKRTLILTHFPKFLSMLEEEVYSQNSPIWDQDFLSASSRTSQLGIQTVINPPPVAGTISYNSTSSSLEQPNAGSSSPACKASSGLEANPGEKRKMTDSHVLEEAKKPRVMGDIPMELINEVMSTITDPAAMLGPETNFLSAHSARDEAARLEERRGVIEFHVVGNSLNQKPNKKILMWLVGLQNVFSHQLPRMPKEYITRLVFDPKHKTLALIKDGRVIGGICFRMFPSQGFTEIVFCAVTSNEQVKGYGTHLMNHLKEYHIKHDILNFLTYADEYAIGYFKKQGFSKEIKIPKTKYVGYIKDYEGATLMGCELNPRIPYTEFSVIIKKQKEIIKKLIERKQAQIRKVYPGLSCFKDGVRQIPIESIPGIRETGWKPSGKEKSKEPRDPDQLYSTLKSILQQVKSHQSAWPFMEPVKRTEAPGYYEVIRFPMDLKTMSERLKNRYYVSKKLFMADLQRVFTNCKEYNPPESEYYKCANILEKFFFSKIKEAGLIDK
B2: GST-p300 HAT domain 4 (protein)
chain: KPKRLQEWYKKMLDKAVSERIVHDYKDIFKQATEDRLTSAKELPYFEGDFWPNVLEESIKELEQEEEERKREENTSNESTDVTKGDSKNAKKKNNKKTSKNKSSLSRGNKKKPGMPNVSNDLSQKLYATMEKHKEVFFVIRLIAGPAANSLPPIVDPDPLIPCDLMDGRDAFLTLARDKHLEFSSLRRAQWSTMCMLVELHTQSQDRFVYTCNECKHHVETRWHCTVCEDYDLCITCYNTKNHDHKMEKLGLGLDDESNNQQAAATQSPGDSRRLSIQRCIQSLVHACQCRNANCSLPSCQKMKRVVQHTKGCKRKTNGGCPICKQLIALCCYHAKHCQENKCPVPFCLNIKQKLRQQQLQHRLQQAQMLRRRMASMQRTGVVGQQQGLPSPTPATPTTPTGQQPTTPQTPQPTSQPQPTPPNSMPPYLPRTQA

Legend:
[1] = molecular target: recombinant S6K2 (highly purified)
Sequence of recombinant S6K2 (highly purified) (chain, as listed by the source): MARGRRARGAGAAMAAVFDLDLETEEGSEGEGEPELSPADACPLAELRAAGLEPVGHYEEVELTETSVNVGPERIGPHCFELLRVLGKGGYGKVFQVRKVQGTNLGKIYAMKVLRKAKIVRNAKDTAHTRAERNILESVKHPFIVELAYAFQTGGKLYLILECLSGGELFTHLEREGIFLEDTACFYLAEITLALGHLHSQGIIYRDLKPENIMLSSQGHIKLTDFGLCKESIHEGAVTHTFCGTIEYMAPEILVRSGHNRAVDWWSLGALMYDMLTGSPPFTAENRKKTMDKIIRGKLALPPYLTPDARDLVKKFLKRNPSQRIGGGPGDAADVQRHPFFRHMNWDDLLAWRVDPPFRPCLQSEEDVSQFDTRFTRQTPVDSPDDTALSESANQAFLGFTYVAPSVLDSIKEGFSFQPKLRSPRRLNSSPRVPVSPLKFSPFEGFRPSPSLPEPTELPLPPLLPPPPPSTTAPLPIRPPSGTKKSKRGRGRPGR

[2] = molecular target: recombinant S6K1 (highly purified)
[3] = molecular target: GST [GST: P08515]
Sequence of GST [GST: P08515] (P08515 whole entry): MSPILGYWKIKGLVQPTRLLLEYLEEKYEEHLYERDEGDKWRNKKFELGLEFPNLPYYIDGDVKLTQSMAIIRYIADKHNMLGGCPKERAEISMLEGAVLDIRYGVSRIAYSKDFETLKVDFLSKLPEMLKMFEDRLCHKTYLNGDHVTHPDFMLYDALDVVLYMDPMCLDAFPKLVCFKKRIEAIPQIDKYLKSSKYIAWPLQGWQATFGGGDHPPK

Protein | in vitro acetylation (incorporation of 14C labelled acetyl groups, autoradiography) [1] | in vitro acetylation (incorporation of 14C labelled acetyl groups, autoradiography) [2] | in vitro acetylation [3]
B1 | when S6K1 and S6K2 were incubated in the presence of GST-p300 HAT domain 4 or GST-P/CAF, ^14C labeled acetyl groups were indeed incorporated into the proteins | when S6K1 and S6K2 were incubated in the presence of GST-p300 HAT domain 4 or GST-P/CAF, ^14C labeled acetyl groups were indeed incorporated into the proteins | –
B2 | when S6K1 and S6K2 were incubated in the presence of GST-p300 HAT domain 4 or GST-P/CAF, ^14C labeled acetyl groups were indeed incorporated into the proteins | when S6K1 and S6K2 were incubated in the presence of GST-p300 HAT domain 4 or GST-P/CAF, ^14C labeled acetyl groups were indeed incorporated into the proteins | no acetylation of GST is seen under these conditions
